# Changes are numbered by the printed parent chain. Names may count otherwise.
# B1: C. glutamicum glyceraldehyde-3-phosphate dehydrogenase (gapA) variant D35G/L36T/T37K (Corynebacterium glutamicum ATCC 13032; D35G/L36T/T37K) (protein)
# chain: MTIRVGINGFGRIGRNFFRAVLERSDDLEVVAVNGTKDNKTLSTLLKFDSIMGRLGQEVEYDDDSITVGGKRIAVYAERDPKNLDWAAHNVDIVIESTGFFTDANAAKAHIEAGAKKVIISAPASNEDATFVYGVNHESYDPENHNVISGASCTTNCLAPMAKVLNDKFGIENGLMTTVHAYTGDQRLHDAPHRDLRRARAAAVNIVPTSTGAAKAVALVLPELKGKLDGYALRVPVITGSATDLTFNTKSEVTVESINAAIKEAAVGEFGETLAYSEEPLVSTDIVHDSHGSIFDAGLTKVSGNTVKVVSWYDNEWGYTCQLLRLTELVASKL
# notes: His-tag (inferred: pET-28a+ NdeI cloning, Ni-NTA purification) (N); His-tag (inferred: reverse primer has no stop codon and reads in frame into the vector's C-terminal His-tag) (C); made in house; host or cells: E. coli BL21 (DE3) CodonPlus RIPL
# B2: C. glutamicum glyceraldehyde-3-phosphate dehydrogenase (gapA) variant D35G/L36T/P192S (Corynebacterium glutamicum ATCC 13032; D35G/L36T/P192S) (protein)
# chain: B1 chain with K37T, P192S
# notes: as for B1
# B3: C. glutamicum glyceraldehyde-3-phosphate dehydrogenase (gapA) variant D35G/L36T (Corynebacterium glutamicum ATCC 13032; D35G/L36T) (protein)
# chain: B1 chain with K37T
# notes: as for B1
# B4: C. glutamicum glyceraldehyde-3-phosphate dehydrogenase (gapA) variant D35G/L36T/T37K/P192S (Corynebacterium glutamicum ATCC 13032; D35G/L36T/P192S/T37K) (protein)
# chain: B1 chain with P192S
# notes: as for B1
# B5: C. glutamicum glyceraldehyde-3-phosphate dehydrogenase (gapA) variant D35G/L36R/P192S (Corynebacterium glutamicum ATCC 13032; D35G/L36R/P192S) (protein)
# chain: B1 chain with T36R, K37T, P192S
# notes: as for B1
# B6: C. glutamicum glyceraldehyde-3-phosphate dehydrogenase (gapA) variant D35G/L36R (Corynebacterium glutamicum ATCC 13032; D35G/L36R) (protein)
# chain: B1 chain with T36R, K37T
# notes: as for B1
# B7: C. glutamicum glyceraldehyde-3-phosphate dehydrogenase (gapA) variant D35G (Corynebacterium glutamicum ATCC 13032; D35G) (protein)
# chain: B1 chain with T36L, K37T
# notes: as for B1
# B8: C. glutamicum glyceraldehyde-3-phosphate dehydrogenase (gapA), Wild-type, SEQ ID NO:1 (Corynebacterium glutamicum ATCC 13032) (protein)
# chain: B1 chain with G35D, T36L, K37T
# notes: as for B1
# Experiments:
# [1] = substrate: NC(=O)c1ccc[n+]([C@@H]2O[C@H](COP(=O)(O)OP(=O)(O)OC[C@H]3O[C@@H](n4cnc5c(N)ncnc54)[C@H](O)[C@@H]3O)[C@@H](O)[C@H]2O)c1; assay: GAPDH enzyme activity, coenzyme kinetics (NAD(P)H absorbance at 340 nm); assay type: biochemical, C. glutamicum; settings: coenzyme varied, 25°C, pH 8.5, 1.5 mM glyceraldehyde-3-phosphate, 50 mM Na2HPO4, mean ± S.D.
# Procedure: (§1) The above recombinant E. coli strains were cultured at 37°C in LB medium containing 100 mg/L kanamycine until an OD600 of 0.6 was reached. Then, (isopropyl-beta-D-thiogalactopyranoside (IPTG) was added to the medium to a final concentration of 0.1 mM, and the bacteria were cultured at 20°C for another 12-14 h. The E. coli cells were then harvested and washed and suspended in the buffer of 50 mM Na2HPO4 (pH 7.5), 0.2 mM EDTA and 0.1 mM dithiothreitol. Suspended cells were disrupted by sonication and centrifuged at 13.000 rpm for 1 h. The supernatant was purified by use of a Ni^2+ NTA column (GE Healthcare Bio-Sciences, Piscataway, NJ).
# (§2) The enzyme activity of glyceraldehyde-3-phosphate dehydrogenase was determined by monitoring the change of NAD(P)H in absorbance at 340 nm at 25°C using a Multiskan® spectrophotometer (Thermo Scientific, Germany). Initial rate measurements were carried out in 50 mM triethanolamine hydrochloride buffer (pH 8.5), 0.2 mM EDTA, 50 mM Na2HPO4, 1.5 mM glyceraldehyde-3-phosphate (Clermont et al., 1993). When saturation could be reached, kinetic parameters were obtained from activity measurements with coenzyme concentrations ranging from 0.1 Km to 10 Km. Each rate measurement was run in triplicate. One unit of enzyme activity corresponds to one µmol of NAD(P)H formed per minute. Kinetic constants were obtained from non-linear regression data analysis and expressed as mean ± S.D.
# (§3) The kinetic parameters determined for wild-type and mutated forms of glyceraldehyde-3-phosphate dehydrogenase are shown in Table 1. It can be seen that coenzyme specificity of glyceraldehyde-3-phosphate has been changed from NAD to NADP by the introduction of mutations at amino positions 35, 36, 37 and 192. More specifically, mutants comprising amino acid exchanges D35G/L36T/T37K, D35G/L36T/P192S, D35G/L36R/P192S, or D35G/L36T/T37K/P192S show a high catalytic efficiency and can utilize both NAD^+ and NADP^+. Table 1: Kinetic parameters of wild-type and mutated glyceraldehyde-3-phosphate dehydrogenase
# [2] = substrate: NC(=O)c1ccc[n+]([C@@H]2O[C@H](COP(=O)(O)OP(=O)(O)OC[C@H]3O[C@@H](n4cnc5c(N)ncnc54)[C@H](OP(=O)(O)O)[C@@H]3O)[C@@H](O)[C@H]2O)c1; assay: as above; assay type: biochemical, C. glutamicum; settings: coenzyme varied, 25°C, pH 8.5, 1.5 mM glyceraldehyde-3-phosphate, 50 mM Na2HPO4, mean ± S.D.
# Procedure: as §1, §2, §3
protein,measurement,setting,value
B1,Km,[1]; other: D35G/L36T/T37K,470 ± 32 µM
same,kcat,[1]; other: D35G/L36T/T37K,4.2 ± 0.55 s⁻¹
same,kcat/Km,[1]; other: D35G/L36T/T37K,536 ± 48 mM/min
same,Km,[2]; other: D35G/L36T/T37K,100 ± 12 µM
same,kcat,[2]; other: D35G/L36T/T37K,8 ± 0.6 s⁻¹
same,kcat/Km,[2]; other: D35G/L36T/T37K,4800 ± 232 mM/min
B2,Km,[1]; other: D35G/L36T/P192S,120 ± 4 µM
same,kcat,[1]; other: D35G/L36T/P192S,3.78 ± 0.283 s⁻¹
same,kcat/Km,[1]; other: D35G/L36T/P192S,1952 ± 113 mM/min
same,Km,[2]; other: D35G/L36T/P192S,70 ± 3 µM
same,kcat,[2]; other: D35G/L36T/P192S,6.58 ± 0.467 s⁻¹
B3,Km,[1]; other: D35G/L36T,220 ± 38 µM
same,kcat,[1]; other: D35G/L36T,4.77 ± 0.617 s⁻¹
same,kcat/Km,[1]; other: D35G/L36T,1300 ± 154 mM/min
same,Km,[2]; other: D35G/L36T,280 ± 16 µM
same,kcat,[2]; other: D35G/L36T,5.87 ± 0.867 s⁻¹
same,kcat/Km,[2]; other: D35G/L36T,1257 ± 118 mM/min
B4,Km,[1]; other: D35G/L36T/T37K/P192S,100 ± 14 µM
same,kcat,[1]; other: D35G/L36T/T37K/P192S,2.73 ± 0.2 s⁻¹
same,kcat/Km,[1]; other: D35G/L36T/T37K/P192S,1640 ± 108 mM/min
same,Km,[2]; other: D35G/L36T/T37K/P192S,70 ± 3 µM
same,kcat,[2]; other: D35G/L36T/T37K/P192S,7.13 ± 0.75 s⁻¹
same,kcat/Km,[2]; other: D35G/L36T/T37K/P192S,5868 ± 352 mM/min
B5,Km,[1]; other: D35G/L36R/P192S,58 ± 2 µM
same,kcat,[1]; other: D35G/L36R/P192S,2.87 ± 0.183 s⁻¹
same,kcat/Km,[1]; other: D35G/L36R/P192S,2954 ± 228 mM/min
same,Km,[2]; other: D35G/L36R/P192S,100 ± 12 µM
same,kcat,[2]; other: D35G/L36R/P192S,6.48 ± 0.617 s⁻¹
same,kcat/Km,[2]; other: D35G/L36R/P192S,3885 ± 247 mM/min
B6,Km,[1]; other: D35G/L36R,180 ± 17 µM
same,kcat,[1]; other: D35G/L36R,3.4 ± 0.367 s⁻¹
same,kcat/Km,[1]; other: D35G/L36R,1134 ± 132 mM/min
same,Km,[2]; other: D35G/L36R,310 ± 34 µM
same,kcat,[2]; other: D35G/L36R,5.8 ± 0.433 s⁻¹
same,kcat/Km,[2]; other: D35G/L36R,1123 ± 176 mM/min
B7,Km,[1]; other: D35G,540 ± 70 µM
same,kcat,[1]; other: D35G,6.37 ± 0.533 s⁻¹
same,kcat/Km,[1]; other: D35G,707 ± 82 mM/min
same,Km,[2]; other: D35G,830 ± 120 µM
same,kcat,[2]; other: D35G,2.97 ± 0.183 s⁻¹
same,kcat/Km,[2]; other: D35G,215 ± 22 mM/min
B8,Km,[1]; other: Wild-type,48 ± 2 µM
same,kcat,[1]; other: Wild-type,6.45 ± 0.467 s⁻¹
same,kcat/Km,[1]; other: Wild-type,8063 ± 540 mM/min

# — patent EP2559758A1, “Modified glyceraldehyde-3-phosphate dehydrogenase from corynebacterium glutamicum and uses thereof” (Technische Universität Hamburg-Harburg, priority 2011, dated 2013)
